# Numbering of substitutions follows the chain as printed. *1 amine or outer side, *2 acyl side, *3 side chain or, on linkers, in order; H or OH if unused. Side-chain parts run from the residue outwards. [ ]: non-standard residue; d: D form. The star is where a group is joined. C20 diacid = O=C(O)CCCCCCCCCCCCCCCCCCC(=O)*; C18 diacid = O=C(O)CCCCCCCCCCCCCCCCC(=O)*; γGlu = O=C(O)[C@H](CCC(=O)[*:2])N[*:1]; εLys = N[C@@H](CCCCN[*:1])C(=O)[*:2]; Stearoyl = CCCCCCCCCCCCCCCCCC(=O)*; AEEA = NCCOCCOCC(=O)O; Aib = CC(C)(N)C(=O)O
# B1: Compound 34 (peptide)
# peptide: H-H[Aib]EGSFTSELATILDK([AEEA-AEEA-γGlu-C20 diacid])QAARDFIAWLKQHKITD-OH
# SMILES: CC[C@H](C)[C@H](NC(=O)[C@H](Cc1ccccc1)NC(=O)[C@H](CC(=O)O)NC(=O)[C@H](CCCNC(=N)N)NC(=O)[C@H](C)NC(=O)[C@H](C)NC(=O)[C@H](CCC(N)=O)NC(=O)[C@H](CCCCNC(=O)COCCOCCNC(=O)COCCOCCNC(=O)CC[C@H](NC(=O)CCCCCCCCCCCCCCCCCCC(=O)O)C(=O)O)NC(=O)[C@H](CC(=O)O)NC(=O)[C@H](CC(C)C)NC(=O)[C@@H](NC(=O)[C@@H](NC(=O)[C@H](C)NC(=O)[C@H](CC(C)C)NC(=O)[C@H](CCC(=O)O)NC(=O)[C@H](CO)NC(=O)[C@@H](NC(=O)[C@H](Cc1ccccc1)NC(=O)[C@H](CO)NC(=O)CNC(=O)[C@H](CCC(=O)O)NC(=O)C(C)(C)NC(=O)[C@@H](N)Cc1c[nH]cn1)[C@@H](C)O)[C@@H](C)O)[C@@H](C)CC)C(=O)N[C@@H](C)C(=O)N[C@@H](Cc1c[nH]c2ccccc12)C(=O)N[C@@H](CC(C)C)C(=O)N[C@@H](CCCCN)C(=O)N[C@@H](CCC(N)=O)C(=O)N[C@@H](Cc1c[nH]cn1)C(=O)N[C@@H](CCCCN)C(=O)N[C@H](C(=O)N[C@H](C(=O)N[C@@H](CC(=O)O)C(=O)O)[C@@H](C)O)[C@@H](C)CC
# B2: Compound 38 (peptide)
# peptide: H-H[Aib]EGTFSSELATILDEQAARDFIAWLIAHKITD[dK][dK][dK][dK][dK][dK]([γGlu-C18 diacid])-NH2
# B3: Compound 32 (peptide)
# peptide: HXEGSFTSELATILDXQAARDFIAWLQQHKITD
# HELM: PEPTIDE1{H.[Aib].E.G.S.F.T.S.E.L.A.T.I.L.D.K.Q.A.A.R.D.F.I.A.W.L.Q.Q.H.K.I.T.D}|PEPTIDE2{[CCCCCCCCCCCCCCCC(=O)[*:2]].[bAla]}$PEPTIDE1,PEPTIDE2,16:R3-2:R2$$$V2.0
# SMILES: CCCCCCCCCCCCCCCC(=O)NCCC(=O)NCCCC[C@H](NC(=O)[C@H](CC(=O)O)NC(=O)[C@H](CC(C)C)NC(=O)[C@@H](NC(=O)[C@@H](NC(=O)[C@H](C)NC(=O)[C@H](CC(C)C)NC(=O)[C@H](CCC(=O)O)NC(=O)[C@H](CO)NC(=O)[C@@H](NC(=O)[C@H](Cc1ccccc1)NC(=O)[C@H](CO)NC(=O)CNC(=O)[C@H](CCC(=O)O)NC(=O)C(C)(C)NC(=O)[C@@H](N)Cc1c[nH]cn1)[C@@H](C)O)[C@@H](C)O)[C@@H](C)CC)C(=O)N[C@@H](CCC(N)=O)C(=O)N[C@@H](C)C(=O)N[C@@H](C)C(=O)N[C@@H](CCCNC(=N)N)C(=O)N[C@@H](CC(=O)O)C(=O)N[C@@H](Cc1ccccc1)C(=O)N[C@H](C(=O)N[C@@H](C)C(=O)N[C@@H](Cc1c[nH]c2ccccc12)C(=O)N[C@@H](CC(C)C)C(=O)N[C@@H](CCC(N)=O)C(=O)N[C@@H](CCC(N)=O)C(=O)N[C@@H](Cc1c[nH]cn1)C(=O)N[C@@H](CCCCN)C(=O)N[C@H](C(=O)N[C@H](C(=O)N[C@@H](CC(=O)O)C(=O)O)[C@@H](C)O)[C@@H](C)CC)[C@@H](C)CC
# B4: Compound 33 (peptide)
# peptide: B3 peptide with Q27Y
# HELM: PEPTIDE1{H.[Aib].E.G.S.F.T.S.E.L.A.T.I.L.D.K.Q.A.A.R.D.F.I.A.W.L.Y.Q.H.K.I.T.D}|PEPTIDE2{[O=C(O)CCCCCCCCCCCCCCCCC(=O)[*:2]].[gGlu].[O=C(COCCOCCN[*:1])[*:2]]}$PEPTIDE1,PEPTIDE2,16:R3-3:R2$$$V2.0
# SMILES: CC[C@H](C)[C@H](NC(=O)[C@H](Cc1ccccc1)NC(=O)[C@H](CC(=O)O)NC(=O)[C@H](CCCNC(=N)N)NC(=O)[C@H](C)NC(=O)[C@H](C)NC(=O)[C@H](CCC(N)=O)NC(=O)[C@H](CCCCNC(=O)COCCOCCNC(=O)CC[C@H](NC(=O)CCCCCCCCCCCCCCCCC(=O)O)C(=O)O)NC(=O)[C@H](CC(=O)O)NC(=O)[C@H](CC(C)C)NC(=O)[C@@H](NC(=O)[C@@H](NC(=O)[C@H](C)NC(=O)[C@H](CC(C)C)NC(=O)[C@H](CCC(=O)O)NC(=O)[C@H](CO)NC(=O)[C@@H](NC(=O)[C@H](Cc1ccccc1)NC(=O)[C@H](CO)NC(=O)CNC(=O)[C@H](CCC(=O)O)NC(=O)C(C)(C)NC(=O)[C@@H](N)Cc1c[nH]cn1)[C@@H](C)O)[C@@H](C)O)[C@@H](C)CC)C(=O)N[C@@H](C)C(=O)N[C@@H](Cc1c[nH]c2ccccc12)C(=O)N[C@@H](CC(C)C)C(=O)N[C@@H](Cc1ccc(O)cc1)C(=O)N[C@@H](CCC(N)=O)C(=O)N[C@@H](Cc1c[nH]cn1)C(=O)N[C@@H](CCCCN)C(=O)N[C@H](C(=O)N[C@H](C(=O)N[C@@H](CC(=O)O)C(=O)O)[C@@H](C)O)[C@@H](C)CC
# B5: Compound 36 (peptide)
# peptide: H-H[Aib]EGSFTSELATILDK(Stearoyl)QAARDFIAWLIQYKITD-OH
# SMILES: CCCCCCCCCCCCCCCCCC(=O)NCCCC[C@H](NC(=O)[C@H](CC(=O)O)NC(=O)[C@H](CC(C)C)NC(=O)[C@@H](NC(=O)[C@@H](NC(=O)[C@H](C)NC(=O)[C@H](CC(C)C)NC(=O)[C@H](CCC(=O)O)NC(=O)[C@H](CO)NC(=O)[C@@H](NC(=O)[C@H](Cc1ccccc1)NC(=O)[C@H](CO)NC(=O)CNC(=O)[C@H](CCC(=O)O)NC(=O)C(C)(C)NC(=O)[C@@H](N)Cc1c[nH]cn1)[C@@H](C)O)[C@@H](C)O)[C@@H](C)CC)C(=O)N[C@@H](CCC(N)=O)C(=O)N[C@@H](C)C(=O)N[C@@H](C)C(=O)N[C@@H](CCCNC(=N)N)C(=O)N[C@@H](CC(=O)O)C(=O)N[C@@H](Cc1ccccc1)C(=O)N[C@H](C(=O)N[C@@H](C)C(=O)N[C@@H](Cc1c[nH]c2ccccc12)C(=O)N[C@@H](CC(C)C)C(=O)N[C@H](C(=O)N[C@@H](CCC(N)=O)C(=O)N[C@@H](Cc1ccc(O)cc1)C(=O)N[C@@H](CCCCN)C(=O)N[C@H](C(=O)N[C@H](C(=O)N[C@@H](CC(=O)O)C(=O)O)[C@@H](C)O)[C@@H](C)CC)[C@@H](C)CC)[C@@H](C)CC
# B6: Compound 35 (peptide)
# peptide: H-H[Aib]EGSFTSELATILDK([AEEA-AEEA-AEEA-εLys-C20 diacid])QAARDFIAWLIQQKITD-OH
# SMILES: CC[C@H](C)[C@H](NC(=O)[C@H](Cc1ccccc1)NC(=O)[C@H](CC(=O)O)NC(=O)[C@H](CCCNC(=N)N)NC(=O)[C@H](C)NC(=O)[C@H](C)NC(=O)[C@H](CCC(N)=O)NC(=O)[C@H](CCCCNC(=O)COCCOCCNC(=O)COCCOCCNC(=O)COCCOCCNC(=O)[C@@H](N)CCCCNC(=O)CCCCCCCCCCCCCCCCCCC(=O)O)NC(=O)[C@H](CC(=O)O)NC(=O)[C@H](CC(C)C)NC(=O)[C@@H](NC(=O)[C@@H](NC(=O)[C@H](C)NC(=O)[C@H](CC(C)C)NC(=O)[C@H](CCC(=O)O)NC(=O)[C@H](CO)NC(=O)[C@@H](NC(=O)[C@H](Cc1ccccc1)NC(=O)[C@H](CO)NC(=O)CNC(=O)[C@H](CCC(=O)O)NC(=O)C(C)(C)NC(=O)[C@@H](N)Cc1c[nH]cn1)[C@@H](C)O)[C@@H](C)O)[C@@H](C)CC)C(=O)N[C@@H](C)C(=O)N[C@@H](Cc1c[nH]c2ccccc12)C(=O)N[C@@H](CC(C)C)C(=O)N[C@H](C(=O)N[C@@H](CCC(N)=O)C(=O)N[C@@H](CCC(N)=O)C(=O)N[C@@H](CCCCN)C(=O)N[C@H](C(=O)N[C@H](C(=O)N[C@@H](CC(=O)O)C(=O)O)[C@@H](C)O)[C@@H](C)CC)[C@@H](C)CC
# Target: T1, human GLP-2 receptor (hGLP2-R) (human, UniProt O95838 1-553)
# T1 sequence (looked up): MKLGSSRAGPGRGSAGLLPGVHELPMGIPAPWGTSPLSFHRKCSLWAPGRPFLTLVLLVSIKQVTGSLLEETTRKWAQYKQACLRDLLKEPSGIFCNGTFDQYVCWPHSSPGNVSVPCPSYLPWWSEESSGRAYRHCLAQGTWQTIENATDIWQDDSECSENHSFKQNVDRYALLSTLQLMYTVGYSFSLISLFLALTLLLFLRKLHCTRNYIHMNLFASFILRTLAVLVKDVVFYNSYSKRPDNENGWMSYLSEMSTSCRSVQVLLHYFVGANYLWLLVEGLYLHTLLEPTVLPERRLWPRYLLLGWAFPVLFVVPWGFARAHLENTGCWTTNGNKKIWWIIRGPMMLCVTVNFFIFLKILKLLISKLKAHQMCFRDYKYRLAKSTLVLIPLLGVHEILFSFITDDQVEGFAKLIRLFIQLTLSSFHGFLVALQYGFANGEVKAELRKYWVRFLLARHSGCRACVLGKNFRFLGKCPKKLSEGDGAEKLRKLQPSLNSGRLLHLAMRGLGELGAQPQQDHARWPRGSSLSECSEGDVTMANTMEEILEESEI
# Assay: cell-based or functional assay
row,Binder,EC50 GLP-2 (nM); cAMP response [nM]
1,B1,0.13
2,B2,0.89
3,B3,0.46
4,B4,0.072
5,B5,3.2
6,B6,0.3

# Target: human glucagon-like peptide 1 receptor (GLP-1 R) (human, UniProt P43220 24-463)
# Assay: cell-based or functional assay
row,Binder,EC50 GLP-1 (nM); cAMP response [nM]
1,B1,0.28
2,B2,0.25
3,B3,0.38
4,B4,0.85
5,B5,0.32
6,B6,0.099

# From patent US20200297818A1 (ZEALAND PHARMA A S, published 2020)
